T1: Antigen CD66c (CEACAM6; Sino Biological, Inc.) (UniProt P40199 35-320)
T1 construct: Bought antigen, coated on the ELISA plate; construct not described; also called CECACAM6 (CD66c) antigen; CD66c antigen
T1 sequence (looked up): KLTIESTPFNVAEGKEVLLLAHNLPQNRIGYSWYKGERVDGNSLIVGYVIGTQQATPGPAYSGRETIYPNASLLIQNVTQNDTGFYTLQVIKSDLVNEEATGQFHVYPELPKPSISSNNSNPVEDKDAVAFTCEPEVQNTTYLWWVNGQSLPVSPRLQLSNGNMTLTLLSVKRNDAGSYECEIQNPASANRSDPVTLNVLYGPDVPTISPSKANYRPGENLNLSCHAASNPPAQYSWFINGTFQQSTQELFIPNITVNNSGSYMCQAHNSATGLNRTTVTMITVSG

T2: CEACAM1 antigen (Sino Biological, Inc.) (UniProt P13688 35-428)
T2 construct: Bought antigen, coated on the ELISA plate; construct not described; also called CEACAM1 (CD66a) antigen; CD66a
T2 sequence (looked up): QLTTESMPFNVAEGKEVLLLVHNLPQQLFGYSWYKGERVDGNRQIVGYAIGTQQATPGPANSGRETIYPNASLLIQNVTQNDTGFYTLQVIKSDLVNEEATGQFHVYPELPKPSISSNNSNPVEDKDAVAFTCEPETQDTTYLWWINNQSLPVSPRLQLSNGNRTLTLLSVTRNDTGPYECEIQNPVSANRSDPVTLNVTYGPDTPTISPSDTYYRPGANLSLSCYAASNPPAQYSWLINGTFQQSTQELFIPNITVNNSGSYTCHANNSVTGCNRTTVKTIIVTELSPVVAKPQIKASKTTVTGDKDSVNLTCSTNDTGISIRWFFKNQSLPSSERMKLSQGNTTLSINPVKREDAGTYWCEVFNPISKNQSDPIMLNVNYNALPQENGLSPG

T3: CD66c (Cluster of Differentiation 66c) on cells (UniProt P40199 35-320, limits assumed)
T3 construct: whole, on cells; also called CEACAM6; CEACAM 6
T3 sequence (looked up): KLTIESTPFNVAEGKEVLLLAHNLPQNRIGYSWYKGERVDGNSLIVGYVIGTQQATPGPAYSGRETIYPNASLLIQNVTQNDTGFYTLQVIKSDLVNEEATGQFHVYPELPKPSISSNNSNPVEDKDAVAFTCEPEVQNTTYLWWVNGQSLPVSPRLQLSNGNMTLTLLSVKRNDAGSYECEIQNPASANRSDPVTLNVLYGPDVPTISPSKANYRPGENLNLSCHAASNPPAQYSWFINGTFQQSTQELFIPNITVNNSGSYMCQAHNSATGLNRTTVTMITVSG


How the values were obtained:
[1] = target: T1, Antigen CD66c (CEACAM6; Sino …); experiment: ELISA, CEACAM6 coated 100 ng/well, antibody at 3333.33 ng/ml
Procedure: (§1) Antigen CD66c (CEACAM6; Sino Biological, Inc.) and CEACAM1 antigen (Sino Biological, Inc.) were coated on a 96-well plate at a rate of 100 ng per well and then blocked. The primary antibody was diluted 3-fold from 10 ug/ml and bound at 37° C. for 1 hour. […] goat anti-Human Ig-HRP conjugate (Jackson ImmunoResearch) as a secondary antibody was diluted 1:10,000 and incubated at 37° C. for 30 minutes. The washing was carried out at three times between each step, and the TMB reaction was performed, stopped with 1N H₂SO₄ solution at the same amount of TMB solution (100 ul) and then OD value was measured at 450 nm.
(§2) As a result of the experiment, the binding affinities to CD66c antigen of the five kinds of recombinant humanized antibodies selected from among 96 kinds of recombinant humanized antibodies are shown in FIG. 4a, Table 12, FIG. 4b and Table 13. FIG. 4a and Table 12 show the binding capacity of the antibodies to CECACAM6 CD66c) antigen, and FIG. 4b and Table 13 are the results for the CEACAM1 (CD66a) antigen.

[2] = target: T1, Antigen CD66c (CEACAM6; Sino …); experiment: ELISA, CEACAM6 coated 100 ng/well, antibody at 13.72 ng/ml
Procedure: as §1, §2

[3] = target: T2, CEACAM1 antigen (Sino Biological, Inc.); experiment: ELISA, CEACAM1 coated 100 ng/well, antibody at 4.57 ng/ml
Procedure: as §1

[4] = target: T1, Antigen CD66c (CEACAM6; Sino …); experiment: ELISA, CEACAM6 coated 100 ng/well, antibody at 1.52 ng/ml
Procedure: as §1, §2

[5] = target: T2, CEACAM1 antigen (Sino Biological, Inc.); experiment: ELISA, CEACAM1 coated 100 ng/well, antibody at 10000.00 ng/ml
Procedure: as §1

[6] = target: T2, CEACAM1 antigen (Sino Biological, Inc.); experiment: ELISA, CEACAM1 coated 100 ng/well, antibody at 41.15 ng/ml
Procedure: as §1

[7] = target: T2, CEACAM1 antigen (Sino Biological, Inc.); experiment: ELISA, CEACAM1 coated 100 ng/well, antibody at 0.17 ng/ml
Procedure: as §1, §2

[8] = target: T1, Antigen CD66c (CEACAM6; Sino …); experiment: ELISA, CEACAM6 coated 100 ng/well, antibody at 4.57 ng/ml
Procedure: as §1, §2

[9] = target: T1, Antigen CD66c (CEACAM6; Sino …); experiment: ELISA, CEACAM6 coated 100 ng/well, antibody at 370.37 ng/ml
Procedure: as §1, §2

[10] = target: T2, CEACAM1 antigen (Sino Biological, Inc.); experiment: ELISA, CEACAM1 coated 100 ng/well, antibody at 3333.33 ng/ml
Procedure: as §1

[11] = target: T1, Antigen CD66c (CEACAM6; Sino …); experiment: ELISA, CEACAM6 coated 100 ng/well, antibody at 1111.11 ng/ml
Procedure: as §1, §2

[12] = target: T2, CEACAM1 antigen (Sino Biological, Inc.); experiment: ELISA, CEACAM1 coated 100 ng/well, antibody at 370.37 ng/ml
Procedure: as §1

[13] = target: T3, CD66c (Cluster of Differentiation 66c) …; experiment: flow cytometry on CD66c-positive A549 cells, FITC anti-human IgG
Procedure: Each expressed 96 recombinant humanized antibody was poured and reacted in a test tube containing the same amount […] of CD66c-positive A549 non-small-cell lung cancer cell line at 4° C. for 30 minutes, washed with PBS, and treated with FITC-conjugated goat anti-Huma IgG (DiNona Inc, Korea) was added and incubated at 4° C. for 15 minutes. After washing with PBS, the cells were analyzed with a flow cytometer (Stratedigm, S1000EXi) and the results are shown below.
Among the 96 recombinant humanized antibody candidates, eight were firstly selected based on the degree of expression, the presence of aggregation, and the degree of cell binding (Table 9 and Table 10, FIGS. 3A to 3E).

| OD 450 nm [1] | OD 450 nm [2] | OD 450 nm [3] | OD 450 nm [4] | OD 450 nm [5] | OD 450 nm [6] | OD 450 nm [7] | OD 450 nm [8] | OD 450 nm [9] | OD 450 nm [10] | OD 450 nm [11] | OD 450 nm [12] | % (% gated × mean), against the chimeric antibody [13] | % gated [13] | Mean (fluorescence) [13] | Binder |
| --- | --- | --- | --- | --- | --- | --- | --- | --- | --- | --- | --- | --- | --- | --- | --- |
| 3.18 OD 450 nm | 1.06 OD 450 nm | 0.05 OD 450 nm | 0.53 OD 450 nm | 0.42 OD 450 nm | 0.07 OD 450 nm | 0.04 OD 450 nm | 0.74 OD 450 nm | 2.8 OD 450 nm | 0.31 OD 450 nm | 3.19 OD 450 nm | 0.12 OD 450 nm | 103% | 72% | 645 | recombinant humanized anti-CD66c antibody Protein ID 3058 (Vk8 + VH11) (antibody, human IgG1, V domains shown, also called hu 3058; #86) VH: QVQLVQSGAEVKKPGASVKISCKASGYSFTDYTMHWVKQAPGQNLEWIGLINPFGGSTSYAQKFKGRVTMTRDTSTNTAYMELSRLRSDDTAVYYCVRGDPVRHYYALAYWGQGTLVTVSS VL: DIQMTQSPSTLSASVGDRVTITCRASENVYGTLNWYQRKPGKAPKLLIYGATNLADGMPSRFSGSGSGTEYTLTISSLQPDDFATYYCQNVLSAPYTFGGGTKLEIK |
| 2.95 OD 450 nm | 1.37 OD 450 nm | 0.27 OD 450 nm | 0.7 OD 450 nm | 0.91 OD 450 nm | 0.61 OD 450 nm | 0.08 OD 450 nm | 0.91 OD 450 nm | 2.92 OD 450 nm | 1.22 OD 450 nm | 2.74 OD 450 nm | 0.8 OD 450 nm | 105% | 69% | 686 | recombinant humanized anti-CD66c antibody Protein ID 3043 (Vk8 + VH6) (antibody, V domains shown, also called hu 3043; #71) VH: QVQLVQSGAEVKKPGASMKISCKASGYSFTDYTMNWVKQAPGQNLEWIGLINPFHGGTVSNQRFKVKATLTVDVSTNTAYMELSRLRSDDTAVYYCVRGDPVRHYYALAYWGQGTLVTVSS VL: DIQMTQSPSTLSASVGDRVTITCRASENVYGTLNWYQRKPGKAPKLLIYGATNLADGMPSRFSGSGSGTEYTLTISSLQPDDFATYYCQNVLSAPYTFGGGTKLEIK |

Further lines, the binder ahead of its results:

| Binder | OD 450 nm [1] | OD 450 nm [2] | OD 450 nm [3] | OD 450 nm [4] | OD 450 nm [5] | OD 450 nm [6] | OD 450 nm [7] | OD 450 nm [8] | OD 450 nm [9] | OD 450 nm [10] | OD 450 nm [11] | OD 450 nm [12] | % (% gated × mean), against the chimeric antibody [13] | % gated [13] | Mean (fluorescence) [13] |
| --- | --- | --- | --- | --- | --- | --- | --- | --- | --- | --- | --- | --- | --- | --- | --- |
| anti-CD66c chimeric antibody 8F5 (antibody, human IgG1, V domains shown, also called chimeric 8F5; chi 8F5) VH: EVQLQQSGPELVKPGASMKISCKASGYSFTDYTMNWVKQSHGKNLEWIGLINPFHGGTVSNQRFKVKATLTVDVSSNTAYMELLSLTSDDSAVYYCVRGDPVRHYYALAYWGQGTSVTVSS VL: DIQMTQSPASLSASVGETVTITCGASENVYGTLNWYQRKQGKSPQLLIYGATNLADGMSSRFSGSGSGRQYSLKISSLHPDDVATYYCQNVLSAPYTFGGGTKLEII | 3.41 OD 450 nm | 1.15 OD 450 nm | 0.28 OD 450 nm | 0.53 OD 450 nm | 1.21 OD 450 nm | 0.82 OD 450 nm | 0.08 OD 450 nm | 0.8 OD 450 nm | 3.3 OD 450 nm | 1.24 OD 450 nm | 3.3 OD 450 nm | 1.13 OD 450 nm | 100% | 73% | 619 |
| recombinant humanized anti-CD66c antibody Protein ID 3007 (Vk7 + VH6) (antibody, human IgG1, V domains shown, also called hu 3007; #43) VH: QVQLVQSGAEVKKPGASMKISCKASGYSFTDYTMNWVKQAPGQNLEWIGLINPFHGGTVSNQRFKVKATLTVDVSTNTAYMELSRLRSDDTAVYYCVRGDPVRHYYALAYWGQGTLVTVSS VL: DIQMTQSPSTLSASVGDRVTITCGASENVYGTLNWYQRKPGKAPKLLIYGATNLADGVPSRFSGSGSGTEYTLTISSLQPDDFATYYCQNVLSAPYTFGGGTKLEIK | 3.24 OD 450 nm | 1.64 OD 450 nm | 0.27 OD 450 nm | 0.79 OD 450 nm | 1.01 OD 450 nm | 0.66 OD 450 nm | 0.09 OD 450 nm | 1.02 OD 450 nm | 3.16 OD 450 nm | 1.15 OD 450 nm | 3.23 OD 450 nm | 0.92 OD 450 nm | 88.8% | 71% | 565 |
| recombinant humanized anti-CD66c antibody Protein ID 2938 (Vk5 + VH7) (antibody, human IgG1, V domains shown, also called hu 2938) VH: QVQLVQSGAEVKKPGASMKISCKASGYSFTDYTMNWVRQAPGQGLEWIGLINPFHGGTVSNQRFKVKATLTVDVSTNTAYMELSRLRSDDTAVYYCVRGDPVRHYYALAYWGQGTLVTVSS VL: DIQMTQSPSTLSASVGDRVTITCGASENVYGTLAWYQRKPGKAPKLLIYGATNLADGVPSRFSGSGSGREYTLTISSLQPDDFATYYCQNVLSAPYTFGGGTKLEIK | 3.27 OD 450 nm | 1.15 OD 450 nm | 0.05 OD 450 nm | 0.48 OD 450 nm | 0.32 OD 450 nm | 0.07 OD 450 nm | 0.04 OD 450 nm | 0.65 OD 450 nm | 3.08 OD 450 nm | 0.27 OD 450 nm | 3.16 OD 450 nm | 0.14 OD 450 nm | 96% | 71% | 611 |
